Test results reported in patent publication US20210364527A1 (QUANTUM SI, published 2021).
Changes are numbered by the printed parent chain. Read-outs that look alike come from different tables or passages of the source. Primed or numbered codes have the meaning given here. Ends that are not written are not given here. FITC′ = not defined here

T1: RA peptide RAKLDEESILKQK (XAKLDEESILKQK, X = R)
T1 construct: Biolayer interferometry single-point screen of UBR-box homologs
T1 peptide: RAKLDEESILKQK

T2: KA peptide KAKLDEESILKQK (XAKLDEESILKQK, X = K)
T2 construct: Biolayer interferometry single-point screen of UBR-box homologs
T2 peptide: KAKLDEESILKQK

T3: LA peptide LAKLDEESILKQK (XAKLDEESILKQK, X = L)
T3 construct: Immobilized on the biolayer interferometry sensor
T3 peptide: LAKLDEESILKQK

T4: IA peptide IAKLDEESILKQK (XAKLDEESILKQK, X = I)
T4 construct: Immobilized on the biolayer interferometry sensor
T4 peptide: IAKLDEESILKQK

T5: VA peptide VAKLDEESILKQK (XAKLDEESILKQK, X = V)
T5 construct: Immobilized on the biolayer interferometry sensor
T5 peptide: VAKLDEESILKQK

T6: F peptide FAKLDEESILKQK (XAKLDEESILKQK, X = F)
T6 construct: Immobilized on the biolayer interferometry sensor
T6 peptide: FAKLDEESILKQK

T7: IQ peptide IQKLDEESILKQK (XXKLDEESILKQK, XX = IQ)
T7 construct: Biolayer interferometry
T7 peptide: IQKLDEESILKQK

T8: VR peptide VRKLDEESILKQK (XXKLDEESILKQK, XX = VR)
T8 construct: Biolayer interferometry
T8 peptide: VRKLDEESILKQK

T9: FITC-labeled FA peptide FAKLDEESILKQK-FITC
T9 peptide: FAKLDEESILKQK-{FITC′}

T10: FITC-labeled YA peptide YAKLDEESILKQK-FITC
T10 peptide: YAKLDEESILKQK-{FITC′}

T11: FITC-labeled WA peptide WAKLDEESILKQK-FITC
T11 peptide: WAKLDEESILKQK-{FITC′}

T12: Y peptide YAKLDEESILKQK (XAKLDEESILKQK, X = Y)
T12 construct: Immobilized on the biolayer interferometry sensor
T12 peptide: YAKLDEESILKQK

T13: W peptide WAKLDEESILKQK (XAKLDEESILKQK, X = W)
T13 construct: Immobilized on the biolayer interferometry sensor
T13 peptide: WAKLDEESILKQK

T14: FITC-labeled LA peptide LAKLDEESILKQK-FITC
T14 peptide: LAKLDEESILKQK-{FITC′}

T15: FITC-labeled IA peptide IAKLDEESILKQK-FITC
T15 peptide: IAKLDEESILKQK-{FITC′}

T16: FITC-labeled VA peptide VAKLDEESILKQK-FITC
T16 peptide: VAKLDEESILKQK-{FITC′}

T17: I (IAWLVK)
T17 chain: IAWLVK

T18: Kluyveromyces lactis UBR-box domain (PS528) (Kluyveromyces lactis, UniProt O60014 101-182)
T18 construct: UBR-streptavidin complex in fluorescence polarization
T18 sequence: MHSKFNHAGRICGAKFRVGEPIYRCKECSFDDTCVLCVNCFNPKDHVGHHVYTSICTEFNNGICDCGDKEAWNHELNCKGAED

T19: LI
T19 construct: also called LIFAGK
T19 chain: LIFAGK

T20: IF
T20 construct: also called IFAGK
T20 chain: IFAGK

T21: ClpS from Thermosynochoccus elongatus (teClpS) (Thermosynechococcus elongatus, UniProt Q8DJY3 6-94)
T21 construct: Dye-labelled or streptavidin-complexed depending on the assay; also called Thermosynechococcus elongatus ClpS
T21 sequence: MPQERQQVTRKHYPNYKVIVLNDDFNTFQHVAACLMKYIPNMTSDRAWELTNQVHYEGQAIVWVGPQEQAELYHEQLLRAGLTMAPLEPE

B1: Vombatus ursinus UBR-box domain (PS522) (other)
chain: MLCGKVFKSGETTYSCRDCAIDPTCVLCMNCFQSSVHKNHRYKMHTSTGGGFCDCGDTEAWKTGPFCTIHEP
B2: PS558 (other)
chain: MTATTADPDRTTAEKTTKKARRSGQPKRQPRYHVILWNDNDHTYQYVVAMLQQLFGHPATTGLKLATEVDRTGRAVILTTTREHAELKRDQIHAFGADRLLARSKGAMSASIEPEAE
B3: PS372 (ClpS homolog) (other)
chain: MAFPARGKTAPKNEVRRQPPYNVILLNDDDHTYRYVIEMLQKIFGFPPEKGFQIAEEVDRTGRVILLTTSKEHAELKQDQVHSYGPDPYLGRPCSGSMTCVIEPAV
notes: also called PS372-Bt; PS372-Bt-mPEG4
B4: Kluyveromyces marxianus UBR1 (PS621) (other)
chain: T18 sequence with N6S, R17K, V47T, S54T, E75T, N77F, G80A, A81E, D83G
notes: UBR-streptavidin complex in fluorescence polarization
B5: FITC-labeled RA peptide RAKLDEESILKQK-FITC (peptide)
peptide: RAKLDEESILKQK-{FITC′}
B6: Planctomycetia bacterium ClpS homolog (PS557) (other)
chain: MPTAASATESAIEDTPAPARPEVDGRTKPKRQPRYHVVLWNDDDHTYQYVVVMLQSLFGHPPERGYRLAKEVDTQGRVIVLTTTREHAELKRDQIHAFGYDRLLARSKGSMKASIEAEE
B7: PS551 (other)
chain: MPSAAPAKPKTKRQSRTQGMPPYNVVLLDDDDHTYGYVIEMLNKVFGHPPEKGFELATEVDKNGRVIVMTTNLEVAELKRDEVHAFGPDPLMPRSKGSMSAVVERAG
B8: PS545 (other)
chain: MSEPMTLPAIPQPRLKERTQRQPPYNVILLNDDDHSYEYVIAMLQVLFGYPREKGYQMAKEVDSTGRVILLTTTREHAELKQEQIHAFGPDPLMARCQGSMTAVIEPAV
B9: RA peptide (N-terminal arginine, penultimate alanine; rest of sequence not given) (peptide)
peptide: RAKLDEESILKQK-{FITC′}
B10: IR peptide IRKLDEESILKQK (XXKLDEESILKQK, XX = IR) (peptide)
peptide: IRKLDEESILKQK
notes: Biolayer interferometry

Key:
[1] = target: T1, RA peptide RAKLDEESILKQK …; assay: biolayer interferometry single-point screen, 30 C
[2] = target: T2, KA peptide KAKLDEESILKQK …; assay: biolayer interferometry single-point screen, 30 C
[3] = target: T3, LA peptide LAKLDEESILKQK …; assay: biolayer interferometry as in Example 12
[4] = target: T4, IA peptide IAKLDEESILKQK …; assay: biolayer interferometry as in Example 12
[5] = target: T5, VA peptide VAKLDEESILKQK …; assay: biolayer interferometry as in Example 12
[6] = target: T6, F peptide FAKLDEESILKQK (XAKLDEESILKQK, …); assay: biolayer interferometry as in Example 12
[7] = target: B10; assay: biolayer interferometry
[8] = target: T7, IQ peptide IQKLDEESILKQK …; assay: biolayer interferometry
[9] = target: T8, VR peptide VRKLDEESILKQK …; assay: biolayer interferometry
[10] = target: T9, FITC-labeled FA peptide …; assay: fluorescence polarization, single point
[11] = target: T10, FITC-labeled YA peptide …; assay: fluorescence polarization, single point
[12] = target: T11, FITC-labeled WA peptide …; assay: fluorescence polarization, single point
[13] = target: T3, LA peptide LAKLDEESILKQK …; assay: biolayer interferometry as in Example 12
[14] = target: T4, IA peptide IAKLDEESILKQK …; assay: biolayer interferometry as in Example 12
[15] = target: T5, VA peptide VAKLDEESILKQK …; assay: biolayer interferometry as in Example 12
[16] = target: T6, F peptide FAKLDEESILKQK (XAKLDEESILKQK, …); assay: biolayer interferometry as in Example 12
[17] = target: T12, Y peptide YAKLDEESILKQK (XAKLDEESILKQK, …); assay: biolayer interferometry, peptide immobilized on the sensor, 30 C
[18] = target: T13, W peptide WAKLDEESILKQK (XAKLDEESILKQK, …); assay: as above
[19] = target: T14, FITC-labeled LA peptide …; assay: fluorescence polarization, FITC-peptide with ClpS:streptavidin complex, 23 C
[20] = target: T15, FITC-labeled IA peptide …; assay: as above
[21] = target: T16, FITC-labeled VA peptide …; assay: as above
I (IAWLVK) = target: T17, I (IAWLVK); assay: dynamic sequencing of EFIAWLVK with PS610, PS372, hTET and pfuTET
[22] = target: B9; assay: fluorescence polarization
[23] = target: T2, KA peptide KAKLDEESILKQK …; assay: BLI heatmap, single-point screen
[24] = target: B5; assay: fluorescence polarization titration with increasing concentration of UBR protein
[25] = target: T18, Kluyveromyces lactis UBR-box domain …; assay: as above
[26] = target: T3, LA peptide LAKLDEESILKQK …; assay: biolayer interferometry as in Example 12
[27] = target: T4, IA peptide IAKLDEESILKQK …; assay: biolayer interferometry as in Example 12
[28] = target: T5, VA peptide VAKLDEESILKQK …; assay: biolayer interferometry as in Example 12
[29] = target: T6, F peptide FAKLDEESILKQK (XAKLDEESILKQK, …); assay: biolayer interferometry as in Example 12
LI = target: T19, LI; assay: 3-binder dynamic sequencing of [..]; binder assigned by the binding preference in Table 1
IF = target: T20, IF; assay: as above
[30] = target: T3, LA peptide LAKLDEESILKQK …; assay: biolayer interferometry as in Example 12
[31] = target: T4, IA peptide IAKLDEESILKQK …; assay: biolayer interferometry as in Example 12
[32] = target: T5, VA peptide VAKLDEESILKQK …; assay: biolayer interferometry as in Example 12
[33] = target: T6, F peptide FAKLDEESILKQK (XAKLDEESILKQK, …); assay: biolayer interferometry as in Example 12
[34] = target: T3, LA peptide LAKLDEESILKQK …; assay: biolayer interferometry as in Example 12
[35] = target: T4, IA peptide IAKLDEESILKQK …; assay: biolayer interferometry as in Example 12
[36] = target: T5, VA peptide VAKLDEESILKQK …; assay: biolayer interferometry as in Example 12
[37] = target: T6, F peptide FAKLDEESILKQK (XAKLDEESILKQK, …); assay: biolayer interferometry as in Example 12
[38] = target: T18, Kluyveromyces lactis UBR-box domain …; assay: fluorescence polarization
[39] = target: T21, ClpS from Thermosynochoccus elongatus …; assay: biolayer interferometry

## B1
[1]
  binding result: binds
[2]
  binding result: binds

## B2
[3]
  binding result: binds
[4]
  binding result: binds
[5]
  binding result: binds
[6]
  binding result: no binding

## B3
[7]
  binding result: binds
[8]
  binding result: binds
[9]
  binding result: no binding
[10]
  binding result: no binding
[11]
  binding result: no binding
[12]
  binding result: no binding
[13]
  binding result: binds
[14]
  binding result: binds
[15]
  binding result: binds
[16]
  binding result: no binding
[17]
  binding result: no binding
[18]
  binding result: no binding
[19]
  binding result: binds
[20]
  binding result: binds
[21]
  binding result: binds
I (IAWLVK)
  binding result: binds

## B4
[22]
  Kd: 321 nM
[23]
  binding result: binds
[24]
  Kd: 420 nM

## B5
[25]
  Kd: 460 nM

## B6
[26]
  binding result: binds
[27]
  binding result: binds
[28]
  binding result: binds
[29]
  binding result: no binding
LI
  binding result: binds
IF
  binding result: binds

## B7
[30]
  binding result: binds
[31]
  binding result: binds
[32]
  binding result: binds
[33]
  binding result: no binding

## B8
[34]
  binding result: binds
[35]
  binding result: binds
[36]
  binding result: binds
[37]
  binding result: no binding

## B9
[38]
  Kd: 403 nM

## B10
[39]
  binding result: binds
